Reference: patent US20260184815A1 (published 2026)

B1: M8-A09 (Fab, V domains shown)
VH: EVQLLESGGGLVQPGGSLRLSCAASGFTFSTYFMLWVRQAPGKGLEWVSSIYPSGGNTVYADSVKGRFTISRDNSKNTLYLQMNSLRAEDTAVYYCARAASPVRNYYYYGMDVWGQGTTVTVSS
VL: QCELTQPPSESVSPGQTANITCSGDKLGNKYAYWYQQKPGQSPVLVIYQDNNRPSGIPERFSGSNSGNTATLTISGTQAIDEANYYCQAWDSRTVVFGGGTKLTVL
notes: HC as printed runs into CH1
B2: M10-F10 (Fab, V domains shown)
VH: EVQLLESGGGLVQPGGSLRLSCAASGFTFSFYNMNWVRQAPGKGLEWVSSISPSGGETNYADSVKGRFTISRDNSKNTLYLQMNSLRAEDTAVYYCARGGGAYRNNWWGGFDIWGLGTMVTVSS
VL: DIQMTQSPSSLSASVGDRVTITCRASQSISVYLNWYQHKPGKAPKLLIYGASNLQFGVPSRFSGSGYGTDFTLTISSLQPEDFATYHCQQTFSLFTFGGGTKVEIK
notes: HC as printed runs into CH1
B3: M27-E05 (Fab, V domains shown)
VH: EVQLLESGGGLVQPGGSLRLSCAASGFTFSWYLMIWVRQAPGKGLEWVSYIYPSGGFTYYADSVKGRFTISRDNSKNTLYLQMNSLRAEDMAVYYCARTEGPLSWGYGMDVWGQGTTVTVSS
VL: not shown
notes: HC as printed runs into CH1
B4: M29-D09 (Fab, V domains shown)
VH: EVQLLESGGGLVQPGGSLRLSCAASGFTFSWYTMVWVRQAPGKGLEWVSYIYPSGGATFYADSVKGRFTISRDNSKNTLYLQMNSLRAEDTAVYYCAMGSYDYIWGFYSDHWGQGTLVTVSS
VL: QSALTQPPTVSVSPGQTARITCSGNKLGDKYVAWYQQKPGQSPMLVIYQDTKRPSRVSERFSGSNSANTATLSISGTQALDEADYYCQAWDSSIVIFGGGTRLTVL
notes: HC as printed runs into CH1; also called 559A-M0029-D09
B5: M29-E09 (Fab, V domains shown)
VH: EVQLLESGGGLVQPGGSLRLSCAASGFTFSWYEMGWVRQAPGKGLEWVSSIYSSGGGTMYADSVKGRFTISRDNSKNTLYLQMNSLRAEDTAVYYCARNPQYSGYDRSLSDGAFDIWGQGTMVTVSS
VL: QYELTQPPSVSVSPGQTATITCSGDNLGNKYNSWYQQKPGQSPLLVIYQDTKRPSAIPERFSGSNSGNTATLTISGTQAMDEADYYCQAWDGNVVFGGGTKLTVL
notes: HC as printed runs into CH1
B6: M35-G04 (Fab, V domains shown)
VH: EVQLLESGGGLVQPGGSLRLSCAASGFTFSYYHMSWVRQAPGKGLEWVSVISPSGGSTKYADSVKGRFTISRDNSKNTLYLQMNSLRAEDTAVYYCARGGSSDYAWGSYRRPYYFDYWGQGTLVTVSS
VL: DIQMTQSPATLSLSPGERATLSCRASQSVSSYLAWYQQKPGQAPRLLIYDASNRATGIPARFSGSGSGTDFTLTISSLEPEDFAVYYCQQRSNWPRGFTFGPGTKVDIK
notes: HC as printed runs into CH1; also called 559A-M0035-G04
B7: M38-F02 (Fab, V domains shown)
VH: EVQLLESGGGLVQPGGSLRLSCAASGFTFSYYMMVWVRQAPGKGLEWVSYIYSSGGHTVYADSVKGRFTISRDNSKNTLYLQMNSLRAEDTAVYYCARDLFLYDFWSKGAFDIWGQGTMVTVSS
VL: QSVLTQPPSVSVSPGQTASITCSGEKLGDKYVSWYQQKPGQSPSLVICEDSRRPSGIPERFSGSNSGNTATLTISGAQPMDEADYYCQAWDSSTAIFGPGTKVTVL
notes: HC as printed runs into CH1
B8: M41-A11 (Fab, V domains shown)
VH: EVQLLESGGGLVQPGGSLRLSCAASGFTFSHYRMSWVRQAPGKGLEWVSSIYPSGGRTVYADSVKGRFTISRDNSKNTLYLQMNSLRAEDTAVYYCAKDKFEWRLLFRGIGNDAFDIWGQGTMVTVSS
VL: QSVLTQPPSVSVSPGQTASITCSGDKLGDKYTSWYQQRPGQSPVLVIYQDIKRPSGIPERFSGSNSGNTATLTISGTQAMDEADYYCQAWDSPNARVFGSGTKVTVL
notes: HC as printed runs into CH1
B9: M73-D06 (Fab, V domains shown)
VH: EVQLLESGGGLVQPGGSLRLSCAASGFTFSRYEMYWVRQAPGKGLEWVSSISSSGGPTAYADSVKGRFTISRDNSKNTLYLQMNSLRAEDTAMYYCAKGTPKWELLLRSIYIENAFDIWGQGTMVTVSS
VL: QSELTQPPSASETPGQRVTISCSGSSSNIGSNTVSWFQQLPGSAPRLLIYNDHRRPSGVPDRFSGSKSGTSASLVISGLQSQDEADYYCSAWDDSLNGVVFGGGTKLTVL
notes: HC as printed runs into CH1
B10: M76-D01 (Fab, V domains shown)
VH: EVQLLESGGGLVQPGGSLRLSCAASGFTFSFYAMHWVRQAPGKGLEWVSGIVPSGGRTHYADSVKGRFTISRDNSKNTLYLQMNSLRAEDTAVYYCATDSSGSPNPLFDYWGQGTLVTVSS
VL: DIVMTQTPPSLPVNPGEPASISCRSSQSLSDDGNTYLDWYLQRPGQSPQLLIHTLSYRASGVPDRFSGSGSGTDFTLKISRVEAEDVGVYYCMQGTHWPPTFGQGTKVEIK
notes: HC as printed runs into CH1 (ends APSPKS as printed)
B11: M110-C12 (Fab, V domains shown)
VH: EVQLLESGGGLVQPGGSLRLSCAASGFTFSYYEMDWVRQAPGKGLEWVSGISSSGGHTAYADSVKGRFTISRDNSKNTLYLQMNSLRAEDTATYYCARERRSSSRARYYYGMDVWGQGTTVTVSS
VL: DIQMTQSPLSLSVTPGEPASISCRSSLSLLHSNGYNYLDWYVQRPGQSPQLLMYLSSTRASGVPDRFSGSGSGTDFTLEISRVEAEDVGVYYCMQPLETPPTFGGGTKVEIK
notes: HC as printed runs into CH1
B12: M137-E12 (Fab, V domains shown)
VH: EVQLLESGGGLVQPGGSLRLSCAASGFTFSDYRMQWVRQAPGKGLEWVSVIVPSGGNTMYADSVKGRFTISRDNSKNTLYLQMNSLRAEDTAVYYCARGGPGSSIAARRAPTGYYGMDVWGQGTTVTVSS
VL: QSVLIQPPSVSGIPGQRVTISCSGNNSNFGSNTVTWYQQLPGTAPKLLIYSDSRRPSGVPDRFSGSRSDTSASLAISGLQSEDEAEYHCAAWDDSLNGVFGGGTKLTVL
notes: HC as printed runs into CH1
B13: M142-H08 (Fab) (Fab, V domains shown)
VH: EVQLLESGGGLVQPGGSLRLSCAASGFTFSAYSMIWVRQAPGKGLEWVSYIRPSGGRTTYADSVKGRFTISRDNSKNTLYLQMNSLRAEDTAVYYCARGGLLLWFRELKSNYFDYWGQGTLVTVSS
VL: DIQMTQSPSSLSAFVGDRVTITCRASQPIDNYLNWYHQKPGKAPKLLIYAASRLQSGVPSRLSGSGFGTDFTLTISSLQPEDFGNYYCQQSYTVPYTFGGGTKVEIR
notes: HC as printed runs into CH1
B14: M145-D01 (Fab, V domains shown)
VH: B6 VH
VL: B6 VL
notes: HC as printed runs into CH1
B15: M145-D11 (Fab, V domains shown)
VH: B8 VH
VL: B8 VL
notes: HC as printed runs into CH1; also called 559A-M0145-D11
B16: M146-E12 (Fab, V domains shown)
VH: EVQLLESGGGLVQPGGSLRLSCAASGFTFSRYIMHWVRQAPGKGLEWVSSISPSGGLTSYADSVKGRFTISRDNSKNTLYLQMNSLRAEDTAVYYCAREFENAYHYYYYGMDVWGQGTTVTVSS
VL: DIQMTQSPSSLSASVGDRVTITCRASGDIGNALGWYQQKPGKAPRLLISDASTLQSGVPLRFSGSGSGTEFTLTISSLQPEDFATYYCLQGYNYPRTFGQGTKLEIR
notes: HC as printed runs into CH1
B17: M152-A12 (Fab, V domains shown)
VH: EVQLLESGGGLVQPGGSLRLSCAASGFTFSPYFMGWVRQAPGKGLEWVSGIGPSGGSTTYADSVKGRFTISRDNSKNTLYLQMNSLRAEDTAVYYCAREGPPYSSGWYRGLRQYHFDYWGQGTLVTVSS
VL: DIQMTQSPSSLSASVGDRVTITCRASQSISSYLSWYQQRPGKAPNLLIYAASSLQSGVPSRFSGSGSGTDFTLTISSLQPEDFATYYCQQSISIPRTFGQGTKVEVK
notes: HC as printed runs into CH1
B18: M160-G12 (Fab) (Fab, V domains shown)
VH: EVQLLESGGGLVQPGGSLRLSCAASGFTFSHYLMTWVRQAPGKGLEWVSYISPSGGHTIYADSVKGRFTISRDNSKNTLYLQMNSLRAEDTAVYYCARVARGIAARSRTSYFDYWGQGTLVTVSS
VL: DIQMTQSPSFLSASVGDRVTITCRASQGISSYLAWYQQKPGKAPKLLIYAASTLQSGVPSRFSGSGSGTEFTLTISSLQPEDFATYYCQQLNSYPLTFGGGTKVEIK
notes: HC as printed runs into CH1
B19: M161-C11 (Fab, V domains shown)
VH: EVQLLESGGGLVQPGGSLRLSCAASGFTFSDYAMKWVRQAPGKGLEWVSSISSSGGVTQYADSVKGRFTISRDNSKNTLYLQMNSLRAEDTAVYYCAREEDYSSSWYSRRFDYYYGMDVWGQGTTVTVSS
VL: QSALTQPPSVSVSPGQTASITCSGDKLGDKYVSWYQQRPGQSPVLVIYQDTKRPSGIPERFSGSNSGNTATLTISGTQAVDEADYYCQAWDSSTYVFGGGTKVTVL
notes: HC as printed runs into CH1
B20: M162-A04 (Fab) (Fab, V domains shown)
VH: EVQLLESGGGLVQPGGSLRLSCAASGFTFSHYIMMWVRQAPGKGLEWVSGIYSSGGITVYADSVKGRFTISRDNSKNTLYLQMNSLRAEDTAVYYCAYRRTGIPRRDAFDIWGQGTMVTVSS
VL: DIQMTQSPSTLSASVGDRVTITCRASQSISSWLAWYQQKPGKAPNLLIYKASTLESGVPSRFSGSGSGTEFTLTISSLQPDDFATYYCQQYNTYWTFGQGTKVEIK
notes: Non-germlined Fab discovered using phage display; HC as printed runs into CH1
B21: M6-A06 (Fab, V domains shown)
VH: EVQLLESGGGLVQPGGSLRLSCAASGFTFSLYQMTWVRQAPGKGLEWVSGIWPSGGFTDYADSVKGRFTISRDNSKNTLYLQMNSLRAEDTAVYYCARVSTAVADNDYWGQGTLVTVSS
VL: DIQMTQSPSSLSASVGDSVTISCRASQSISMYLNWYQHKPGKAPKLLIYGTSSLQSGVPSRFSGSGPGGTDFTLTISSLQPEDFATYYCQQSYSAPWTFGQGTKVEIK
notes: HC as printed runs into CH1

Molecular target: T1, human plasma kallikrein (human, UniProt P03952 20-390; P03952 391-638)
T1 construct: also called pKal; Human pKal
T1 sequence (P03952 20-390, chain 1 of 2): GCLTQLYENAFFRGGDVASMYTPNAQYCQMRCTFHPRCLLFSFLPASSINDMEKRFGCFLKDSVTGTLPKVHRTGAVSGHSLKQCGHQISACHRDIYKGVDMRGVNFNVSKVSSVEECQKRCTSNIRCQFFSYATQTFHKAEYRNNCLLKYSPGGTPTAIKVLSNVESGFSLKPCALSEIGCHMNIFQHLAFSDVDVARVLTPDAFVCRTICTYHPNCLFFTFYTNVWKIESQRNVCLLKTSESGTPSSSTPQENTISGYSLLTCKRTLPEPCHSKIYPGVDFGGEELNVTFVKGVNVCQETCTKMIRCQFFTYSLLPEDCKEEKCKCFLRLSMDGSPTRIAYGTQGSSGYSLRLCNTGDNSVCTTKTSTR
T1 sequence (P03952 391-638, chain 2 of 2): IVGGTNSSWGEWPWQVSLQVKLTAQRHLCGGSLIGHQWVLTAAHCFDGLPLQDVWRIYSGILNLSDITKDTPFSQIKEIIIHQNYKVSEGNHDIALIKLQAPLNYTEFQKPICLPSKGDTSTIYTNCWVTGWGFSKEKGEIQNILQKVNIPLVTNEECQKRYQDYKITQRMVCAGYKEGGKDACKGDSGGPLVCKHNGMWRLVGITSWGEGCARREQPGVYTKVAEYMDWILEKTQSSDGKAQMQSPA
Assay: ELISA, biotinylated pKal signal over streptavidin background
Description: Abbreviations used: “T/B” is the ELISA signal obtained using of the “target” (biotinylated plasma kallikrein) divided by the ELISA signal of the “background” (streptavidin); both of which were coated on microtiter plates, “nd” is not determined. The symbol “q” refers to the amber suppressible stop codon (TAG), which is translated as glutamine (Q) in strains of E. coli such as the TG1 cells that were used to express the Fab fragments.

Point of comparison: B3, “ELISA (T/B)” value 41.3 T/B. Against it:
- B1 — lower, 5.4 T/B
- B2 — lower, 39.2 T/B
- B4 — higher, 47.5 T/B
- B5 — lower, 28.8 T/B
- B6 — lower, 11.1 T/B
- B7 — lower, 33.5 T/B
- B8 — lower, 28 T/B
- B9 — lower, 4 T/B
- B10 — lower, 11.2 T/B
- B11 — lower, 2.4 T/B
- B12 — lower, 4.5 T/B
- B13 — lower, 29.9 T/B
- B14 — lower, 6.2 T/B
- B15 — lower, 40 T/B
- B16 — higher, 49.6 T/B
- B17 — lower, 19 T/B
- B18 — lower, 38.3 T/B
- B19 — higher, 41.8 T/B
- B20 — lower, 11.4 T/B
- B21 — lower, 11.7 T/B
